Assay results reported in the DeepSol protein solubility set.

experiment: soluble on expression in E. coli; label from the status in PepcDB or PDB records

Sequence	soluble on expression in E. coli
MSLKQLDMTPQPDLSQKTGTGPVLTRLPVWRPALPPCNHACPAGENIQAWLSLAEAGRFEAAWQTLIEENPLPAIHGRVCYHPCESACNRAQVDDAVSIHAIERFLGDEALARGWQPAPPAPASGKKVLVIGAGPSGLSCAWHLNRLGHQVEIREAGPLAGGMLRFGIPAYRLPRDVLDREVARIVAAGVTLTLNHKVEDVLRERDEGGFDAVFMAIGAHLAKRVDIPAREAGKILDAVSFLEQASLAEEQGLPPPKLGRRVAIYGGGNTAMDAARTARRLGVEEAMIIYRRDREHMPAHAFEADEAEEEGIKINWLRSIRQLDNTNIEVEVMALDAEGKPVPTGKFETLEADSLILALGQEVDLSVLESIPGVRVNKEGVVQVGENLMTDVPGLFAGGDMVPSERTVTIATGHGKKAARHMDAWLRGRHYQKMVSYPLVGPEQLQLWFQTHAPASSQPVKPAWARDDFGEIIGGLDETAARYEAARCYSCGNCFECDGCYGSCPEQAIEKLGPGKGYQVDATRCTGCGACHDQCPCHAIELRQPEESEGHHHHHH	soluble
GMNDLKRLPYEPVKGLLPRPAVGTSERVITLPEPDRTSGMPLMGTLWLRKSTREFDQQPLPLKQLSELLWAAAGVNRSLGGGRTAPSPYGETVIDVYVALPAGLYRYDPVHHCLELKRAADLRSMTGYQDFVGMAPLDLVFVANHGRMQEMPPKLRETFSAAAAGAMAENAYLYCASAGLGAVVRGWLNRRQLAEHMSLNEDEEPILSQTIGRAASHVTTTQA	soluble
MGSDKIHHHHHHMNIRLYSDLHIEFEDFHAPADGADVVVLAGDVDVGVRGIDWIVRQEFSCPVIYVMGNHEYYNHRYPSLLGKVKQHAAGKNIHILENESVEIDGVRFHGATLWADFKLFGDPRVAGYECQQVMRDYKKIRKEPSYSKLRSIDVASIHNQSLSWLAESLASSKSSVNVVVTHHAPSMLSVPAYYQDNLVTAAYASDLSAFIDEHKPDYWLHGHLHTSSNYYLGACQVLANPKGYKGEVNESFDPSFSLTLAKRGV	not soluble
MIPMNVTFEHDFQTMRESFFENAQEAFAILDKDLNFIDINKSFTESLKTGRDKLIGKNIIEFNSSIKNTERFRLYQKVLQTGESIILDDIRLHPNLGSYTIRVSCFKVGEGIGLAILNITDLRDAIDDLETFIYKCSHDMRTPVSNIYGLIQLALEDTKDPHTVEFLNMIKHQTDRLDHIIHQLANTSRLMHDNKIIYLVDLKTVVSDVIDSFSKIPDFEAIKFTVTSSSKEKFFSDKSLLICILENIIDNAIKYRNHDIQSLIDINMSDEKSGVRITIKDNGIGIDDDIQKNVFKMFYRGTNKSSGSGLGLYTVKHFIKKLKGEISLTSEKNTGTTFSFYIPNVNTDK	not soluble
ADVSAAVGATGQSGMTYRLGLSWDWDKSWWQTSTGRLTGYWDAGYTYWEGGDEGAGKHSLSFAPVFVYEFAGDSIKPFIEAGIGVAAFSGTRVGDQNLGSSLNFEDRIGAGLKFANGQSVGVRAIHYSNAGLKQPNDGIESYSLFYKIPI	soluble
MRPPSELLDIISKLAELDPLVRKGAVRQLSSKQEELSDNELNTYVIERLISGCASARAAVRLGYTTALGTILMTKAGESWELDKILAVADKKMDLAEKTVGTGHAIGHYLILVTYCQTRKLKEAEATKIVEHSKKIRDFAPSLAFSQINLLCSLATKTKESVFQKSVSPAIEMNLEGLSSQFTPENVYLALRLRNSHSTVVAKYAKFVKKDGSIQFSDDQYPKILAALKRCDFATVQVFLPLLIKASVESSGFDKMYLKVLEPWALSSNETKVFDRILTIVTQFFDFGGDVKSIVVVFTKEVLNRMETATRGKGQFRLMSKKVDDFAAFIQSKLSELRDEEAYTALKELEKCGNVDKACGTGLTTALLSNLGKKQISVWIKENLSNQDEVRKIVSAFSNWDEKSRITVLSALLSQKATETSQSVVTSIIDSLFYVKTRAGEFASIQISEKNEEVLRQLVVAVQGEEEVKKAEKSIGKSKLRKKSLQILWYVTRLWSRIAASSVDSAAYDSDSSEILAIAKNEADGNNSLVFVDLLLSILSREQKFHRTPTAFAFVHAIPTLESKDLCHIVETAMMSEAELAGNDDEDMEDEEGMPFDESEIPSGNGDDEASDSDDDDEEEDDDEGNEAVDQELLDKLNAALGDAAPRDSSSDVEMDDLDDEAMQKMDERLAAAFKAIAPKAGKDKKRSAKSVEALKMKIADLLLIAISSKELAEQSKIKLVVPLLKWAKVDAKTHDKVAQKVLELVNIVVKMKFTDVSEKDALQLLKQVLDEAQTTTNILIIDTVARCVTFVLKISSRDGKSMSAGVKTEFQSLFENYLKNVEGKVPSNFVIQPIADLPLLFVDQLGMLIDAGFDEENRIFKRTEILGAIAMIFTKQVLQETNIKGAIIKKIGKLAAAYFQKVVDSDKSELKPRLFGTVLQLILKVTVCIQNDEKHVDALRESLEYVIQKMFEGEVFIQLKKINPTCHHIIGKSIAGAFTSIKKSLDIEN	not soluble
